Laboratory results from paper PMC2756588.

T1: Myo5, Q04439
T1 sequence (Q04439 1072-1160, looked up): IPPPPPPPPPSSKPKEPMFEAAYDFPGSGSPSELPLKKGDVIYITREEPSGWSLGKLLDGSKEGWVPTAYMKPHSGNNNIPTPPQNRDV

T2: Fus1, P11710
T2 sequence (P11710 432-512, looked up): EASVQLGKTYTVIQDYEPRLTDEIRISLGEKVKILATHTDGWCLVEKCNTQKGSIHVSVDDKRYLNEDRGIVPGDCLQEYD

T3: Bzz1-2, P38822
T3 sequence (P38822 568-633, looked up): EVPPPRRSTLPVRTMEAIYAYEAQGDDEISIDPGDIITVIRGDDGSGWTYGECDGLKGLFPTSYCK

T4: Nbp2, Q12163
T4 sequence (Q12163 103-180, looked up): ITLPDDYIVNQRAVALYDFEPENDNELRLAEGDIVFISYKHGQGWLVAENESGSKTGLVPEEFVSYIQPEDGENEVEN

T5: Boi1, P38041
T5 sequence (P38041 1-86, looked up): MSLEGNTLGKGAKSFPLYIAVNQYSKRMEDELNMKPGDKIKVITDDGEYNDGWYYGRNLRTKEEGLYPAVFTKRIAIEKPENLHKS

T6: Bud14, P27637
T6 sequence (P27637 247-328, looked up): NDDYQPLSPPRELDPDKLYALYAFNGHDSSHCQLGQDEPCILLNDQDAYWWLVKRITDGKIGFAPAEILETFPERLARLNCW

T7: Lsb1, P53281
T7 sequence (P53281 45-122, looked up): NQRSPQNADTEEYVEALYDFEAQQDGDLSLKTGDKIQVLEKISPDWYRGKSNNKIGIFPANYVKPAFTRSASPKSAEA

T8: Bzz1-1, P38822
T8 sequence (P38822 478-572, looked up): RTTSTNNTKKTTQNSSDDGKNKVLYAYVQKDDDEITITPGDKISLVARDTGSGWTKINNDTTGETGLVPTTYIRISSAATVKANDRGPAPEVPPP

T9: Lsb4, P32793
T9 sequence (P32793 402-468, looked up): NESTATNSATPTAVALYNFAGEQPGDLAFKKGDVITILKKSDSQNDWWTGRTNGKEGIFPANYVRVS

T10: Pin3, Q06449
T10 sequence (Q06449 53-122, looked up): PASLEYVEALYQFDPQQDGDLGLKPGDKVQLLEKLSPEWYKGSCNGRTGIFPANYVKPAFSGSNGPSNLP

T11: Abp1, P15891
T11 sequence (P15891 535-592, looked up): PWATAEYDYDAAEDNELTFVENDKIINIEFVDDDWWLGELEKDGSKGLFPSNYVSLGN

T12: Pex13, P80667
T12 sequence (P80667 295-386, looked up): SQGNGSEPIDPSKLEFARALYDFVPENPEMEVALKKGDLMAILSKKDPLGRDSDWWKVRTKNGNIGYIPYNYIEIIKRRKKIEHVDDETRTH

T13: Cdc25, P04821
T13 sequence (P04821 50-136, looked up): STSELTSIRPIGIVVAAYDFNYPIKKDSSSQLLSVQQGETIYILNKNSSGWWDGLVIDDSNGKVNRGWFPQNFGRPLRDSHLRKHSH

T14: Sla1-2, P32790
T14 sequence (P32790 60-140, looked up): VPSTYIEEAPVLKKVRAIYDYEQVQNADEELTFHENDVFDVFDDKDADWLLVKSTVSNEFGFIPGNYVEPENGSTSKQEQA

T15: Bbc1, P47068
T15 sequence (P47068 1-78, looked up): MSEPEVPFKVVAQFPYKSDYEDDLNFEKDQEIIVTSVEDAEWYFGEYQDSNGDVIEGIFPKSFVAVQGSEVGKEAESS

T16: Hof1, Q05080
T16 sequence (Q05080 590-669, looked up): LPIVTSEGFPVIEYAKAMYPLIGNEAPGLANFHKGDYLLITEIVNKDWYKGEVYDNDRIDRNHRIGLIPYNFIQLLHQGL

T17: Lsb3, P43603
T17 sequence (P43603 385-451, looked up): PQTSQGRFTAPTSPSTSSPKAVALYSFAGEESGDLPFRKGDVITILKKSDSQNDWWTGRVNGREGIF

T18: Cyk3, Q07533
T18 sequence (Q07533 1-83, looked up): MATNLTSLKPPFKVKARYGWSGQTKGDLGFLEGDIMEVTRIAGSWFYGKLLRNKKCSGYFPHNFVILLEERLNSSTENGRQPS

T19: Boi2, P39969
T19 sequence (P39969 32-116, looked up): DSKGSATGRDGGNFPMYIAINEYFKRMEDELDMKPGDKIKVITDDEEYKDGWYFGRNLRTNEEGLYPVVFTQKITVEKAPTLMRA

T20: Sla1-3, P32790
T20 sequence (P32790 344-424, looked up): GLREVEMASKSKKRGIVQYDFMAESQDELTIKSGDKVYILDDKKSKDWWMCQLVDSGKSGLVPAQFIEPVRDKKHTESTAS

T21: Hse1, P38753
T21 sequence (P38753 208-285, looked up): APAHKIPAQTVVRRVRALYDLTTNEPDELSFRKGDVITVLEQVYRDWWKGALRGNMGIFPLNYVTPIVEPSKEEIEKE


Experiments:
Assay in all cases: SPOT array
[1] = biological target: T1, Myo5, Q04439; details: median of control spots 471
[2] = biological target: Rvs167, P39743; details: median of control spots 2707
[3] = biological target: T2, Fus1, P11710; details: median of control spots 1200
[4] = biological target: GST; details: median of control spots 978
[5] = biological target: T3, Bzz1-2, P38822; details: median of control spots 4538
[6] = biological target: T4, Nbp2, Q12163; details: median of control spots 357
[7] = biological target: T5, Boi1, P38041; details: median of control spots 1162
[8] = biological target: T6, Bud14, P27637; details: median of control spots 956
[9] = biological target: Myo3, P36006; details: median of control spots 468
[10] = biological target: T7, Lsb1, P53281; details: median of control spots 388
[11] = biological target: T8, Bzz1-1, P38822; details: median of control spots 4446
[12] = biological target: T9, Lsb4, P32793; details: median of control spots 397
[13] = biological target: T10, Pin3, Q06449; details: median of control spots 2171
[14] = biological target: T11, Abp1, P15891; details: median of control spots 935
[15] = biological target: T12, Pex13, P80667; details: median of control spots 1341
[16] = biological target: T13, Cdc25, P04821; details: median of control spots 969
[17] = biological target: T14, Sla1-2, P32790; details: median of control spots 712
[18] = biological target: T15, Bbc1, P47068; details: median of control spots 796
[19] = biological target: T16, Hof1, Q05080; details: median of control spots 4086
[20] = biological target: T17, Lsb3, P43603; details: median of control spots 406
[21] = biological target: T18, Cyk3, Q07533; details: median of control spots 1451
[22] = biological target: Bem1-1, P29366; details: median of control spots 4282
[23] = biological target: T19, Boi2, P39969; details: median of control spots 1161
[24] = biological target: T20, Sla1-3, P32790; details: median of control spots 5475
[25] = biological target: Bem1-2, P29366; details: median of control spots 4347
[26] = biological target: T21, Hse1, P38753; details: median of control spots 1727
[27] = biological target: Sho1, P40073; details: median of control spots 1148
Sho1, P40073, sequence (P40073 287-367): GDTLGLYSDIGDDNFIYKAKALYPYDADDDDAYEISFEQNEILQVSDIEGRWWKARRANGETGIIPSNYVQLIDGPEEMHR

Bem1-2, P29366, sequence (P29366 139-227): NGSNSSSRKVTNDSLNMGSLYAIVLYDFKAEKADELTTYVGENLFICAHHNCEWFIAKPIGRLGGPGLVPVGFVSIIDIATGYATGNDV
Bem1-1, P29366, sequence (P29366 55-141): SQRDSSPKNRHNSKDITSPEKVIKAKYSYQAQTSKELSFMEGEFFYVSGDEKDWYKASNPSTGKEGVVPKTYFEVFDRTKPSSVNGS
Rvs167, P39743, sequence (P39743 419-482): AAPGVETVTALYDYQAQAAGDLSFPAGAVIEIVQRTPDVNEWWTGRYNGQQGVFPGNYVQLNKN

SPOT intensity [1] | SPOT intensity [2] | SPOT intensity [3] | SPOT intensity [4] | SPOT intensity [5] | SPOT intensity [6] | SPOT intensity [7] | SPOT intensity [8] | SPOT intensity [9] | SPOT intensity [10] | SPOT intensity [11] | SPOT intensity [12] | SPOT intensity [13] | SPOT intensity [14] | SPOT intensity [15] | SPOT intensity [16] | SPOT intensity [17] | SPOT intensity [18] | SPOT intensity [19] | SPOT intensity [20] | Binder | further results
0 | 816 | 0 | 0 | 0 | 0 | 240 | 2 | 0 | 857 | 0 | 145 | 4 | 8 | 21 | 0 | 423 | 1 | 0 | 207 | SAPDIPPRSPNRNAH | SPOT intensity [21]: 0; SPOT intensity [22]: 0; SPOT intensity [23]: 312; SPOT intensity [24]: 3; SPOT intensity [25]: 0; SPOT intensity [26]: 0; SPOT intensity [27]: 0
0 | 0 | 0 | 2 | 1 | 0 | 0 | 0 | 0 | 316 | 1 | 363 | 6 | 22 | 8 | 1 | 0 | 559 | 0 | 442 | SSTPTTPERPKRKSG | SPOT intensity [21]: 1; SPOT intensity [22]: 1; SPOT intensity [23]: 2; SPOT intensity [24]: 0; SPOT intensity [25]: 0; SPOT intensity [26]: 0; SPOT intensity [27]: 0
0 | 306 | 0 | 0 | 1 | 0 | 0 | 12 | 0 | 352 | 0 | 137 | 18 | 50 | 76 | 11 | 0 | 18 | 0 | 371 | AERNYAPRLPRRETS | SPOT intensity [21]: 0; SPOT intensity [22]: 1; SPOT intensity [23]: 0; SPOT intensity [24]: 5; SPOT intensity [25]: 0; SPOT intensity [26]: 4; SPOT intensity [27]: 32
7 | 156 | 6 | 0 | 13 | 5 | 0 | 9 | 28 | 78 | 0 | 24 | 71 | 110 | 90 | 2 | 4 | 16 | 13 | 51 | QRIRKIPGIPLMSVG | SPOT intensity [21]: 2; SPOT intensity [22]: 0; SPOT intensity [23]: 0; SPOT intensity [24]: 8; SPOT intensity [25]: 0; SPOT intensity [26]: 7; SPOT intensity [27]: 42
